Results taken from publication PMC4993541 (Cell Cycle, 2016).

Target: FLAG-tagged full-length BRCA2 (human, UniProt P51587 1-3418)
Assay: pull-down

FLAG-tagged full-length BRCA2, sequence (P51587 whole entry): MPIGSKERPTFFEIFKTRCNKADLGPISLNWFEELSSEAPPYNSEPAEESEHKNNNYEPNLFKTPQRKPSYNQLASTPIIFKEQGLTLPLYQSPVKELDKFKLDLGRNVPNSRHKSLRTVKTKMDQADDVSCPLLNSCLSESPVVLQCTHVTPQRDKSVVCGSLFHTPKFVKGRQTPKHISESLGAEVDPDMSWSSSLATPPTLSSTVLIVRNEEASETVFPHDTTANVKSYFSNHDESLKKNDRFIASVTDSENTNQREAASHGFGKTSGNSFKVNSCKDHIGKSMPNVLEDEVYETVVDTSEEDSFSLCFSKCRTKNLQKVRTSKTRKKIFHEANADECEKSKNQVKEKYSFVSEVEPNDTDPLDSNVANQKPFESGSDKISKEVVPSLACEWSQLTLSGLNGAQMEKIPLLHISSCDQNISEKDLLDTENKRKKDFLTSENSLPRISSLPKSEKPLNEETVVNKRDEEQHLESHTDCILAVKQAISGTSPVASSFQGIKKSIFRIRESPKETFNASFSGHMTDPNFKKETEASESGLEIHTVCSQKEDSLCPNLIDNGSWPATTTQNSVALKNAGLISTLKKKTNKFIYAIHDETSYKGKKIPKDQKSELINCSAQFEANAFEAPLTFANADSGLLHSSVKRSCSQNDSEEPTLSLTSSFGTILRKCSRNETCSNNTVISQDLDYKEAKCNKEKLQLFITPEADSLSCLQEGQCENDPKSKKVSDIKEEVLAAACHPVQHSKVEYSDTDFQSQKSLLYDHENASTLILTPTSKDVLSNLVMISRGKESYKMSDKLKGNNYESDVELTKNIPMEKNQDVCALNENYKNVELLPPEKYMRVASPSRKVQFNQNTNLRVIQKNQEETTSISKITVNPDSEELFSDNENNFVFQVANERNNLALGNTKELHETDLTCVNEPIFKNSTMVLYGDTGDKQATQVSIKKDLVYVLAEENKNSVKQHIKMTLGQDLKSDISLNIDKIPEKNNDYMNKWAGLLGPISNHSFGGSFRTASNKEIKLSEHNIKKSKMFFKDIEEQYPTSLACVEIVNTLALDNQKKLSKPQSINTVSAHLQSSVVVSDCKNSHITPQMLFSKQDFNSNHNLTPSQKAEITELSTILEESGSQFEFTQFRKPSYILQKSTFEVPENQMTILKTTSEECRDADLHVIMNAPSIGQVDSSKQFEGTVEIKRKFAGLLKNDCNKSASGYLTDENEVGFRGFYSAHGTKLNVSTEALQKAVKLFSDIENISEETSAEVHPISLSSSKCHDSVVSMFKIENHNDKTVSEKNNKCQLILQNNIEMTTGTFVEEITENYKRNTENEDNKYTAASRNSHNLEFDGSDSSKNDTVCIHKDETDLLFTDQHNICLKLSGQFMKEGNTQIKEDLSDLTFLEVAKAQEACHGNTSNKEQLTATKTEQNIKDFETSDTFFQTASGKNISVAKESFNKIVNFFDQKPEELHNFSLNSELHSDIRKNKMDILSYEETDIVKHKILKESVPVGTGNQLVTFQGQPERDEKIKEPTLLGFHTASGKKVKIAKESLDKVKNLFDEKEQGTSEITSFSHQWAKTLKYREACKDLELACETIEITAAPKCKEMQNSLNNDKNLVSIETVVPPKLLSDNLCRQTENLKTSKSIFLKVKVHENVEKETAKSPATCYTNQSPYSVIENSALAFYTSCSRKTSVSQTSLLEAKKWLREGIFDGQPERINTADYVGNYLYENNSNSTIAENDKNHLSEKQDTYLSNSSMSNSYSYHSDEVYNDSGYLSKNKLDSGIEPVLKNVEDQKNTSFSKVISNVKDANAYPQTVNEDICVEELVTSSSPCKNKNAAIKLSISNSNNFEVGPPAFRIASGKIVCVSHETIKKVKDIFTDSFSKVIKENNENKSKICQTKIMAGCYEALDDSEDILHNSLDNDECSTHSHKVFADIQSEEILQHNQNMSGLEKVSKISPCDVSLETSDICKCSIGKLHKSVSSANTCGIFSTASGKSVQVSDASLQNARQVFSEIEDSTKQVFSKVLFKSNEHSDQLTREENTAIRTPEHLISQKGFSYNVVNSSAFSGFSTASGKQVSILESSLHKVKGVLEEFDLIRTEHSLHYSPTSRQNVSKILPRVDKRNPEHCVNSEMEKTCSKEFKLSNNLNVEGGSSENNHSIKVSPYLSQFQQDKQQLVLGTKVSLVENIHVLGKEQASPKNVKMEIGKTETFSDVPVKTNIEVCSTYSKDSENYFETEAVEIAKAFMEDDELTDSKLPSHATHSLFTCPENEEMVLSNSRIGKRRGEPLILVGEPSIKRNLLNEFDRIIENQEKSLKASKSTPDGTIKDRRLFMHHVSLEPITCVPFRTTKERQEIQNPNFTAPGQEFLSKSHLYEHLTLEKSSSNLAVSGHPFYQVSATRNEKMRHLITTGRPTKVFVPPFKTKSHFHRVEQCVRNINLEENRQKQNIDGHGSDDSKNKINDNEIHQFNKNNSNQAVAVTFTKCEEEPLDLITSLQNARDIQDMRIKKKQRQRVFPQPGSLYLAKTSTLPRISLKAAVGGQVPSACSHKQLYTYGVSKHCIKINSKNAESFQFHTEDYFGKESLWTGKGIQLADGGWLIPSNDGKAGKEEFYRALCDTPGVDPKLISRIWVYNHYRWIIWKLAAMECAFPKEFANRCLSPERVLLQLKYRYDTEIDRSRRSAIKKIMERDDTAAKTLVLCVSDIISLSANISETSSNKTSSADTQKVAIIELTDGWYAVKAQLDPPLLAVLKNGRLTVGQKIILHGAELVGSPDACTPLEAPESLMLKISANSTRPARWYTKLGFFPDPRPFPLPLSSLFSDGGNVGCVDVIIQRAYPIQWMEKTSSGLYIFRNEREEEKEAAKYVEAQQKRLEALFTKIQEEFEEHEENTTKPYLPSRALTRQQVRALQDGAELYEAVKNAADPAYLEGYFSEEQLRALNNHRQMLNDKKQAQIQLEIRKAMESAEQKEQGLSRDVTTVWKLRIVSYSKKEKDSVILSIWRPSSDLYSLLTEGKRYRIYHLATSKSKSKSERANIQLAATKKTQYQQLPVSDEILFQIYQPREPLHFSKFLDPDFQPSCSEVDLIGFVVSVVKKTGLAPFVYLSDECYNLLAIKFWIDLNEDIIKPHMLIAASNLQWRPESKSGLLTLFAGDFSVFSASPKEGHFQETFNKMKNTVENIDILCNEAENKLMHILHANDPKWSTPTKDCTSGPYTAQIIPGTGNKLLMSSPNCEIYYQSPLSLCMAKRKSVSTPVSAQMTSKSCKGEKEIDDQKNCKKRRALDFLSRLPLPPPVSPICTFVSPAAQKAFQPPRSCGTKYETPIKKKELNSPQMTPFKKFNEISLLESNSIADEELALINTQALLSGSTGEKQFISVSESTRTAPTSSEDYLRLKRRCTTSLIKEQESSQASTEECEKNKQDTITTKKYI

B1: His-tagged full-length LIC2 (natural protein, human, UniProt O43237 1-492, looked up)
chain: MAPVGVEKKLLLGPNGPAVAAAGDLTSEEEEGQSLWSSILSEVSTRARSKLPSGKNILVFGEDGSGKTTLMTKLQGAEHGKKGRGLEYLYLSVHDEDRDDHTRCNVWILDGDLYHKGLLKFAVSAESLPETLVIFVADMSRPWTVMESLQKWASVLREHIDKMKIPPEKMRELERKFVKDFQDYMEPEEGCQGSPQRRGPLTSGSDEENVALPLGDNVLTHNLGIPVLVVCTKCDAVSVLEKEHDYRDEHLDFIQSHLRRFCLQYGAALIYTSVKEEKNLDLLYKYIVHKTYGFHFTTPALVVEKDAVFIPAGWDNEKKIAILHENFTTVKPEDAYEDFIVKPPVRKLVHDKELAAEDEQVFLMKQQSLLAKQPATPTRASESPARGPSGSPRTQGRGGPASVPSSSPGTSVKKPDPNIKNNAASEGVLASFFNSLLSKKTGSPGSPGAGGVQSTAKKSGQKTVLSNVQEELDRMTRKPDSMVTNSSTENEA
binding result: binds
